From patent publication US9597407B2, “Targeted antimicrobial moieties” (C3 Jian, Inc., priority 2009, dated 2017) come the findings set out here.

Test [1] concerns S. mutans. Nature of the test: Post-antibiotic effect assay, monoculture growth after 10 min treatment. It counts as cell-based, Streptococcus mutans. Particulars: peptide 10 min, then fresh medium. The protocol: (§1) The activity and selectivity of MH-STAMPs after a 10 min incubation was determined by growth retardation experiments against targeted and untargeted bacteria in monocultures, as described previously (Id.). Cells from overnight cultures were diluted to ˜5×10^6 cfu/mL in MH (or TH with 1% sucrose for S. mutans), normalized by OD600 0.05-0.1 and seeded to 96-well plates. Cultures were then grown under the appropriate conditions for 2 h (3 h for S. mutans) prior to the addition of peptides for 10 min. Plates were then centrifuged at 3000×g for 5 min, the supernatants discarded, fresh medium returned (MH or TH without sucrose for S. mutans), and incubation resumed. Bacterial growth after treatment was then monitored over time by OD600.
(§2) MH-STAMP antimicrobial kinetics was ascertained utilizing a variation of the classical post-antibiotic effect assay, which measures the ability of an agent to affect an organism's growth after a short exposure period. Monocultures of MH-STAMP-targeted and untargeted organisms were exposed to M8(KH)-20, M8(BL)-20, BL(KH)-20, or unmodified BD2.20, then allowed to recover. […] Furthermore, replacement of the targeting region with a non-binding peptide abolishes specific activity.

For test [2], the system named is P. aeruginosa. The description is as above. It is filed as cell-based, Pseudomonas aeruginosa. Particulars: peptide 10 min, then fresh medium. The protocol: as §1, §2
For test [3], the system named is S. epidermidis. Described as above. It is filed as cell-based, Staphylococcus epidermidis. The note with it: peptide 10 min, then fresh medium. The protocol: as §1, §2
In another test the test system is S. aureus. The test is described as above. The note with it: peptide 10 min, then fresh medium. It counts as cell-based, Staphylococcus aureus. How it is done: as §1, §2
The test system of test [4] is E. coli. Described as above. It counts as cell-based, Escherichia coli. Particulars: peptide 10 min, then fresh medium. How it is done: as §1, §2
The test system of test [5] is S. mutans. Nature of the test: Microbial population shift assay, mixed planktonic culture. It is filed as cell-based, Streptococcus mutans. The note with it: 10 μM peptide, 24 h, detection limit 200 cfu/mL. The protocol:
(§3) Peptide (10 μM) or mock-treatment (1×PBS) was then added and samples were incubated at 37° C. for 24 h under anaerobic conditions (80% N2, 15% CO2, 5% H2). […] Plates were then incubated 37° C. under aerobic conditions (TH plates were incubated anaerobically) and colonies counted after 24 h to determine survivors. […] Gram stains and direct microscopic observation (from select isolated colonies) were undertaken to confirm species identity (data not shown). The detection limit of the assay was 200 cfu/mL.
(§4) We hypothesized that potential MH-STAMP dual-functionality could affect a particular set of bacteria within a mixed population, thereby promoting the outgrowth of non-targeted organisms and “shifting” the constituent makeup. To examine this possibility, defined mixed populations of planktonic cells were treated continuously and the make-up of the community examined after 24 h.

The test system of test [6] is P. aeruginosa. Described as above. The note with it: 10 μM peptide, 24 h, detection limit 200 cfu/mL. It counts as cell-based, Pseudomonas aeruginosa. The protocol: as §3, §4
In test [7] the test system is E. coli. The description is as above. It is filed as cell-based, Escherichia coli. The note with it: 10 μM peptide, 24 h, detection limit 200 cfu/mL. How it is done: as §3, §4
Test [8] concerns S. epidermidis. The test is described as above. Particulars: 10 μM peptide, 24 h, detection limit 200 cfu/mL. It counts as cell-based, Staphylococcus epidermidis. The protocol: as §3, §4
Test [9] concerns S. mutans. In words: STAMP activity in formulations (buffer/salt dependence). It counts as cell-based, Streptococcus mutans. The source says:
During the course of evaluating STAMPs, antimicrobial peptides (AMPs), and binding peptides for desired activity, it was discovered that certain formulations can attenuate or promote peptide activity, as compared to activity levels in a default buffer system (1×PBS). In some cases, 1×PBS may provide the best level of activity. Below are a number of formulations that alter, or may alter, peptide or STAMP activity. For complex buffer systems, assume the base solvent is water unless otherwise stated.
It was a surprising discovery that certain anti-S. mutans STAMPs required a salt in the formulation (e.g., PBS) for optimum activity. […] Suitable PBS formulations ranged from 0.5×PBS to about 2.5×PBS with an activity optimum at about 1×PBS. Similar results are believed to obtain for other anti-S. mutans STAMPS as well as a number of other STAMPs. In certain embodiments STAMP stability in solution was improved by inclusion of fluoride in mouthrinse.

For test [10], the system named is microorganisms. In words: Peptide activities: binding, antimicrobial, growth or phenotype altering (Table 8). The source says: In certain embodiments, peptides described herein can have multiple activities. Thus for example, a peptide can have both binding/targeting activity and antimicrobial activity. Such peptides can be used, e.g., in a chimeric construct, for any or all of these properties. Thus, for example, a peptide designated “B” in Table 8 can be used as a targeting peptide. If it is also designated G or M it can also be used for antimicrobial activity.

The subject of a further test is bacteria. In words: Binding of targeting peptides to microorganisms (Table 3). The note with it: peptide binding in aqueous buffers that varied depending on peptide solubility; preferably 1x PBS.
For test [11], the system named is microorganisms. Nature of the test: Morphology, biofilm and growth disruption by peptides (Table 5). Also noted: key: A: Peptide aggregates; B: Less hyphal formation; Clumps; Diffuse clumps and small polyps; F: Diffuse growth; H: Thin; I: Growth inhibition; Microcolony formation; Rippled; Small polyps; Thick; W: Halo formation on top, microlonies on bottom. It counts as cell-based. The text has this: In certain embodiments peptides that induce alterations in phenotype or other biological activities can also be used as antimicrobial effector moieties.

Entries after “also recorded” stand apart in the source; their conditions may differ. Bridge positions count the residues as written; N and C are the ends. Square brackets hold non-standard residues; d marks the D form. Ends that are not written are not given here. Peptide text beside a SMILES is read from it. I, II: the chains in the order shown. Aoc = NCCCCCCCC(=O)O

Take `CC[C@H](C)[C@H](NC(=O)[C@@H](N)Cc1ccccc1)C(=O)N[C@@H](CCCNC(=N)N)C(=O)N[C@@H](CCCCN)C(=O)N[C@@H](Cc1ccccc1)C(=O)N[C@@H](CC(C)C)C(=O)N[C@@H](CCCCN)C(=O)N[C@@H](CCCCN)C(=O)N[C@@H](Cc1c[nH]c2ccccc12)C(=O)N[C@@H](CC(C)C)C(=O)N[C@@H](CC(C)C)C(N)=O` [BD2.20] (H-FIRKFLKKWLL-NH2; N-terminus assumed): the “S. mutans growth (OD600) after treatment” value with S. mutans [1] was “robust antimicrobial activity”. In addition, in the test with P. aeruginosa [2], the “P. aeruginosa growth (OD600) after treatment” value is “robust antimicrobial activity”. Besides, the “S. epidermidis growth (OD600) after treatment” value in the test on S. epidermidis [3] was “inhibited”. Moreover, the “S. aureus growth (OD600) after treatment” value with S. aureus is listed as “inhibited”. The “E. coli growth (OD600) after treatment” value in the test with E. coli [4] was “inhibited”. In the test with S. mutans [5], the “surviving S. mutans cfu/mL” value is “significant loss of recoverable cfu/mL”. In the test with P. aeruginosa [6], the “surviving P. aeruginosa cfu/mL” value is reported as “significant loss of recoverable cfu/mL”. In the test on E. coli [7], the “surviving E. coli cfu/mL” value is “significant loss of recoverable cfu/mL”. Further, the “surviving S. epidermidis cfu/mL” value in the test on S. epidermidis [8] is reported as “significant loss of recoverable cfu/mL”.
For `CC[C@H](C)[C@H](NC(=O)[C@H](Cc1ccccc1)NC(=O)CCCCCCCNC(=O)[C@H](CCCCNC(=O)CNC(=O)CNC(=O)CNC(=O)[C@H](Cc1c[nH]cn1)NC(=O)[C@H](CCCCN)NC(=O)[C@H](CCCNC(=N)N)NC(=O)[C@H](Cc1c[nH]cn1)NC(=O)[C@H](CCCCN)NC(=O)[C@H](CCCNC(=N)N)NC(=O)[C@H](Cc1c[nH]cn1)NC(=O)[C@H](CCCCN)NC(=O)[C@H](CCCNC(=N)N)NC(=O)[C@H](Cc1c[nH]cn1)NC(=O)[C@H](CCCCN)NC(=O)[C@@H](N)CCCCN)NC(=O)CNC(=O)CNC(=O)CNC(=O)[C@H](C)NC(=O)[C@H](CCC(=O)O)NC(=O)[C@H](CC(N)=O)NC(=O)[C@H](C)NC(=O)[C@H](C)NC(=O)[C@H](CC(=O)O)NC(C)=O)C(=O)N[C@@H](CCCNC(=N)N)C(=O)N[C@@H](CCCCN)C(=O)N[C@@H](Cc1ccccc1)C(=O)N[C@@H](CC(C)C)C(=O)N[C@@H](CCCCN)C(=O)N[C@@H](CCCCN)C(=O)N[C@@H](Cc1c[nH]c2ccccc12)C(=O)N[C@@H](CC(C)C)C(=O)N[C@@H](CC(C)C)C(N)=O` [BL(KH)-20] (I: Ac-DAANEAGGGK[Aoc]FIRKFLKKWLL-NH2 / II: H-KKHRKHRKHRKHGGG; amide I:10-II:C), in the test on S. mutans [1], the “S. mutans growth (OD600) after treatment” value is “not altered”. Further, in the test with S. mutans [5], the “surviving S. mutans cfu/mL” value is on record as “higher than input cfu/mL”. Besides, the “surviving P. aeruginosa cfu/mL” value with P. aeruginosa [6] is “not observed”. For the same molecule, in the test with E. coli [7], the “surviving E. coli cfu/mL” value is reported as “unchanged numbers”. The “surviving S. epidermidis cfu/mL” value with S. epidermidis [8] was “unchanged numbers”.
Turning to “TFFRLFNRSFTQALGKGGGKNLRIIRKGIHIIKKY* (TFFRLFNRSFTQALGKGGGKNLRIIRKGIHIIKKY-NH2) [Peptide C16G2, anti-S. mutans STAMP]”, the “activity optimum (PBS strength)” value in the test with S. mutans [9] (PBS formulations 0.5×PBS to about 2.5×PBS) is reported as “about 1 ×PBS”. Further, in the test with S. mutans [9] (water-based salt-free buffers and nanoemulsions), the activity entry is “substantially inactive”.

B1: PF-749 (peptide)
chain 1: GVNKWWEEHNKAKLWKNVKGKFLEGEGEEEDDE
chain 2: B1 chain 1
modifications: Peptide with targeting and/or antimicrobial activity
In the case of B1, in the test with microorganisms [10], the Activities result was “G B”. Moreover, the “Target(s) (microorganism bound by the targeting peptide)” value with bacteria is “S. epidermidis; also recorded: M. luteus; also recorded: E. coli; also recorded: P. aeruginosa; also recorded: C. albicans; also recorded: S. pneumoniae; also recorded: C. jeikeium”. Besides, the “Organism, effect (morphology, biofilm and growth disruption)” value in the test on microorganisms [11] (S. pneumoniae) is given as “S. pneumoniae (H)”.

B2: PF-763 (peptide)
chain 1: GIWMARNYFHRSSIRKVYVESDKEYERVHPMQKIQYEGNYKSQ
chain 2: B2 chain 1
modifications: Peptide with targeting and/or antimicrobial activity
For B2, in the test with microorganisms [10], the Activities result is on record as “G B”. Besides, the “Target(s) (microorganism bound by the targeting peptide)” value in the test on bacteria was “S. epidermidis and M. luteus and E. coli and C. albicans and MRSA and S. pneumoniae and E. faecalis”. Moreover, the “Organism, effect (morphology, biofilm and growth disruption)” value in the test with microorganisms [11] (M. luteus) is listed as “M. luteus (C)”; in the test on microorganisms [11] (MRSA) it was “MRSA (D)”; with microorganisms [11] (S. epidermidis) it was “S. epidermidis (M)”; with microorganisms [11] (S. pneumoniae) it was “S. pneumoniae (C)”.

B3: PF-745 (peptide)
chain 1: ANSQNSLFSNRSSFKSIFDKKSNITTNATTPNSNIIIN
chain 2: B3 chain 1
modifications: Peptide with targeting and/or antimicrobial activity
Turning to B3, the Activities entry with microorganisms [10] was “G B”. In addition, the “Target(s) (microorganism bound by the targeting peptide)” value with bacteria is “S. epidermidis; also recorded: M. luteus; also recorded: C. albicans”. The “Organism, effect (morphology, biofilm and growth disruption)” value in the test on microorganisms [11] (M. luteus) was “M. luteus (C)”; with microorganisms [11] (MRSA), “MRSA (C)”; in the test on microorganisms [11] (S. mutans), “S. mutans (D)”; with microorganisms [11] (S. pneumoniae), “S. pneumoniae (C)”.

B4: PF-761 (peptide)
chain 1: SKFELVNYASGCSCGADCKCASETECKCASKK
chain 2: B4 chain 1
modifications: Peptide with targeting and/or antimicrobial activity
In the case of B4, the Activities result with microorganisms [10] is reported as “G B”. The “Target(s) (microorganism bound by the targeting peptide)” value with bacteria is “S. epidermidis and M. luteus and P. mirabilis and P. aeruginosa and C. albicans and MRSA and S. pneumoniae and E. faecalis”. Besides, the “Organism, effect (morphology, biofilm and growth disruption)” value in the test with microorganisms [11] (E. coli) is “E. coli (C)”; in the test with microorganisms [11] (M. luteus) it was “M. luteus (C)”; in the test on microorganisms [11] (MRSA), “MRSA (D)”; in the test with microorganisms [11] (P. aeruginosa) it was “P. aeruginosa (C)”; with microorganisms [11] (S. epidermidis), “S. epidermidis (C)”; with microorganisms [11] (S. mutans), “S. mutans (D)”. For the same molecule, the “Organism, effect (morphology, biofilm and growth disruption)” value in the test on microorganisms [11] (S. pneumoniae) is reported as “S. pneumoniae (C)”.
